Assays:
[1] = target: cynomolgus CD40 protein expressed on CHO-S cells (cynomolgus) (UniProt G7PG38); test: flow cytometry on CHO-S cells transiently expressing cynomolgus CD40; AF647 anti-human IgG (H+L) secondary; GeoMean RL1-H
[2] = target: human CD40 protein expressed on cells (human) (UniProt P25942); test: flow cytometry on CHO-S cells transiently expressing human CD40; AF647 anti-human IgG (H+L) secondary; GeoMean RL1-H
Chain of human CD40 protein expressed on cells (human) (P25942 21-277 limits assumed): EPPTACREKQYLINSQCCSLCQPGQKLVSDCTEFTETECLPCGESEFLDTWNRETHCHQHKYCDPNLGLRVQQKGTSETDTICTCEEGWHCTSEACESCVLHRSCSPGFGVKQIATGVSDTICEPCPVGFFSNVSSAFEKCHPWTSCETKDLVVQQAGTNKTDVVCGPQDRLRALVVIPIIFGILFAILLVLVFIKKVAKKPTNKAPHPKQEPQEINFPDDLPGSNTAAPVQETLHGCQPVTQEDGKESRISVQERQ

Chain of cynomolgus CD40 protein expressed on CHO-S cells (cynomolgus) (G7PG38 entry or part of it): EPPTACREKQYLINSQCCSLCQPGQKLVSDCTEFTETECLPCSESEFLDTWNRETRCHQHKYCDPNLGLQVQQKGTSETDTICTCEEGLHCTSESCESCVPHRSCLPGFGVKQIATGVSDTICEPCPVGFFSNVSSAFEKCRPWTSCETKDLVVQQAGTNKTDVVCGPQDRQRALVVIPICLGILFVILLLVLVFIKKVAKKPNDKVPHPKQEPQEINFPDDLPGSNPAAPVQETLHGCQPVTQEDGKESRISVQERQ

B1: ADC-1013 analogue (antibody, INN chains, looked up, IgG1, V domains shown)
VH: EVQLLESGGGLVQPGGSLRLSCAASGFTFSTYGMHWVRQAPGKGLEWLSYISGGSSYIFYADSVRGRFTISRDNSENALYLQMNSLRAEDTAVYYCARILRGGSGMDLWGQGTLVTVSS
VL: QSVLTQPPSASGTPGQRVTISCTGSSSNIGAGYNVYWYQQLPGTAPKLLIYGNINRPSGVPDRFSGSKSGTSASLAISGLRSEDEADYYCAAWDKSISGLVFGGGTKLTVL
B1 showed an EC50 (read off the curve) [1] of 0.01 µg/mL and an EC50 (read off the curve) [2] of 0.01 µg/mL.
